B1: HDV Ribozyme (parent)
chain: GGCCGGCAUGGUCCCAGCCUCCUCGCUGGCGCCGGCUGGGCAACAUUCCGAGGGGACCGUCCCCUCGGUAAUGGCGAAUGGGACCCA

Variants of B1 are the subject of the data set. Briefly: self-cleavage, relative activity (ratio to wild type); higher = more cleavage; co-transcriptional.
As for GGCCGGCAUGGUCCCAGCCUCCUCGCUGGCGCCGGCUGGGCAACAUUCCGAGGGGACCGUCCCCUCGCUAAUGGCGAAUGAGACCCA, the self-cleavage is 0.526.

GGCCGGCAUGGUCACGGCCUCCUCGCUGGCGCCGGCUGGGCAACAUUCCGAGGGGACCGUCCCCUCGGUAAUGGCGAAUGGGACCCA: the self-cleavage is 0.776.

Turning to GGCCGGCAUGGUCCCAGCCUCCUCGCUGGCGCCGGCUGGGCAACAUUGCGAGGGGACCGUCCCCUAGGUAAUGGCGAAUGGGACCCA, the self-cleavage amounted to 0.898.

Take GGCCGGCAUGGUCCCAGCCUCCUCGCUGGCGCCGGCCGAGCAACAUUCCGAGGGGACCGUCCCCUCGGUAAUGGCGAAUGGGACCCA: the self-cleavage came out at 0.0997.

Consider GGCCGGCAUGGUCCCAUCCUCCUCGCUGGCGCCGGCUGGGCAACAUUCCGAGGGGACCGUCCCCUCGGUAAUGACGAAUGGGACCCA, for which the self-cleavage was determined as 0.129.

Consider GGCCGGCAUGGUCCCAGCCUCCUCGCUGGCGCCGGCUGGGCGACAUCCCGAGGGGACCGUCCCCUCGGUAAUGGCGAAUGGGACCCA, for which the self-cleavage was 0.532.

As for GGCCGGCAUGGUCCCAGCCUCCUCGCUGGCGCCGGCUGGGCAACAUUACGAGGGGUCCGUCCCCUCGGUAAUGGCGAAUGGGACCCA, the self-cleavage is 1.03.

Regarding GGCCGGCAUGGUCCCAGCCUCCUCGCUGGCGCCGGCUGGGCAACAUUCCGAGGGGACCGUCCCCUCGGUAAUGGCGGAUGGGACACA, the self-cleavage is 0.851.

On to GGCCGGCAUGGUCCCAGCCUCCUCGCUGGCGCCGGCUGGGCAACAUUCCGAGCAGACCGUCCCCUCGGUAAUGGCGAAUGGGACCCA, for which the self-cleavage is 1.08.

On to GGCCGGCAUGGUCCGAGCCUCCUCGCUGGCGCCGACUGGGCAACAUUCCGAGGGGACCGUCCCCUCGGUAAUGGCGAAUGGGACCCA, for which the self-cleavage stood at 0.196.

As for GGCCGGCAUGGUCCCAGCCUCCUCGCUGGCGCCGGCUGGGCAACAUUCCGAGGGGACCAACCCCUCGGUAAUGGCGAAUGGGACCCA, the self-cleavage came to 0.979.

Regarding GGCCGGCAUGGUCCCAGCCUCCUCGCUGUCGCCGACUGGGCAACAUUCCGAGGGGACCGUCCCCUCGGUAAUGGCGAAUGGGACCCA, the self-cleavage came out at 0.0744.

Consider GGCCGGCAUGGUCCCAGCCUCCUCGCUGGCGCCGGCUGGGCAAAAUUCCGAGGGGACCGUCCCCUCGGUAAUGUCGAAUGGGACCCA, for which the self-cleavage was determined as 0.702.

For the variant GGCCGGCAUGGUCCCAGCCUCCUCGCUGGCGCCGGCCGGGGAACAUUCCGAGGGGACCGUCCCCUCGGUAAUGGCGAAUGGGACCCA, the self-cleavage is 1.11.

On to GGCCGGCAUGGUCCCAGCCUCCUCGCUGGCGCCGGCUUGGCAACAUUCCGAGGGGACCGUCCCCUCGGUACUGGCGAAUGGGACCCA, for which the self-cleavage is 0.225.

Take GGCCGGCAUGGUCCCAGCCUCCUCGCUGGCGCCGUCUGGGCAACAUUCCGAGGGGACCGUCCCCUCGGUAAUGGCCAAUGGGACCCA: the self-cleavage was found to be 0.62.

In the case of GGCCGGCAUGGUCCCAGCCUCCUCGCUGGCGCCGGCUGGGUAACAUUCCGAGGGGACCGUCGCCUCGGUAAUGGCGAAUGGGACCCA, the self-cleavage turned out to be 0.426.

GGCCGGCAUGGUCCCAGCCUCCUCGCUGGCGCCGGCGGAGCAACAUUCCGAGGGGACCGUCCCCUCGGUAAUGGCGAAUGGGACCCA: the self-cleavage stood at 0.0811.

GGCCGGCAUGGUCCCAGCCUCCUCGCUGGCGCCGGCUGUGCUACAUUCCGAGGGGACCGUCCCCUCGGUAAUGGCGAAUGGGACCCA: the self-cleavage was found to be 0.378.

GGCCGGCAUGGUCCCAGCCUCCUCGCUGGCGCCGGCUGGGCAACAUUACGAGGGAACCGUCCCCUCGGUAAUGGCGAAUGGGACCCA: the self-cleavage came to 0.972.

In the case of GGCCCGCAUGGUCCCAGCCUCCUCGCUGGCGCCGGCUGGGCAACAUUCCGAGGGGAUCGUCCCCUCGGUAAUGGCGAAUGGGACCCA, the self-cleavage worked out at 0.185.

In the case of GGCCGGCAUGGUCCCAGCCUCCUCGCUGGCGCCGGCUGGGCAACAUUCCGGGGGGACCGUCCCCUCGGUAACGGCGAAUGGGACCCA, the self-cleavage was 0.864.

Consider GGCCGGGAUUGUCCCAGCCUCCUCGCUGGCGCCGGCUGGGCAACAUUCCGAGGGGACCGUCCCCUCGGUAAUGGCGAAUGGGACCCA, for which the self-cleavage is 0.0462.

Take GGCCGGCAUGGUCCCAGCCUCCUCGCUGGCGCCGGCUGGGCAACAUUCCGAGGGGACCGUCCCCUCGUUAAUGGCGAAUGAGACCCA: the self-cleavage was determined as 0.492.

Regarding GGCCGGCAUGGUCCCAGCCUCCUCGCAGGCGCCAGCUGGGCAACAUUCCGAGGGGACCGUCCCCUCGGUAAUGGCGAAUGGGACCCA, the self-cleavage worked out at 0.256.

Take GGCCGGCAUGGUGCCAGCCUCCUCGCUGGCGCCGGCUGGGCAACAUUCCUAGGGGACCGUCCCCUCGGUAAUGGCGAAUGGGACCCA: the self-cleavage was determined as 0.0426.

Regarding GGCCGGCAUGGUCCCAGCCUCCUCGCUGGCGCCGGCUGGGCAACAUUCCGAGGGGACCGUCCCCUCGGUAUUGACGAAUGGGACCCA, the self-cleavage was determined as 0.519.

Turning to GGCCGACAUGGUCCCAGCCUCCUCGCUGGCGCCGGCUGAGCAACAUUCCGAGGGGACCGUCCCCUCGGUAAUGGCGAAUGGGACCCA, the self-cleavage was 0.277.

In the case of GGCCGGCAUGGACCCAGCCUCCUCGCUGGCGCCGGCUGGGCGACAUUCCGAGGGGACCGUCCCCUCGGUAAUGGCGAAUGGGACCCA, the self-cleavage was 0.256.

As to GGCCGGCAUGGUCCCAGCCUCCUCGCUGGCGCCGGCUGGGCCACAUUCCGAGGGUACCGUCCCCUCGGUAAUGGCGAAUGGGACCCA, the self-cleavage is 0.409.

Regarding GGCCGGCAUGGUCCCAGCCUCCUCGCUGGCGCCGGCUGGGCAACAUUGCGAGGGGACCGUCCCCUCGGUAAUGGCGAAUGGUACCCA, the self-cleavage worked out at 0.284.

As for GGCCGGCAUGGUCCCAGCCUCCUCGCUGGCGCCUGCUGGGCAACAUUCCGAGGGGACCGUCUCCUCGGUAAUGGCGAAUGGGACCCA, the self-cleavage is 0.229.

The values are drawn from the RNAGym collection of RNA variant scans (doi:10.7554/elife.80360).
